# According to patent US20140161803A1 (IFOM Fondazione Istituo FIRC di Oncologia Molecolare, priority 2011, published 2014):
# System: PC-3 cells
# Test: PC3 prostate cancer xenograft tumor growth
# Format: in vivo, Balb C nu/nu mice
# Details: 10.0 mg/kg i.p. bi-weekly; s.c. PC-3 xenograft; versus control animals
# Procedure: Male Balb C nu/nu mice were inoculated with (1×10^6) PC-3 cells through the subcutaneous (s.c.) route. […] Tumors were measured twice weekly, and tumor volume was determined as described in Materials and Methods.
# Six-week-old male Balb C nu/nu mice were obtained from Charles River. Before inoculation, PC-3 cells growing in serum-containing medium were washed with phosphate buffered saline (PBS), harvested by trypsinization, and pelleted at 1200 rpm for 7 minutes. Cells (1.0×10^6) were resuspended in 200 μl of PBS with 20% Matrigel. Animals were anesthetized by intraperitoneal (i.p.) injection of Avertin and 1.0×10^6 cells were inoculated subcutaneously (s.c.) using a 26-gauge needle into the right flank of anesthetized mice. […] The animals were monitored twice a week for 7 weeks for tumor development and growth. Tumor volume was determined according to the formula: tumor volume=shorter diameter^2×longer diameter/2. […] Results were analyzed as the mean±SE, and comparisons of the experimental data were analyzed by unpaired, two-tailed, equal variance, t-test.
# In this model, one million PC3 cells were inoculated in the right flank of male Balb C nu/nu mice through subcutaneous route.
molecule,measurement,value
"13F6: non-inhibitory monoclonal anti-uPAR antibody raised against GFDuPAR-hFc; IgG1 κ (antibody, V domains shown) VH: ELVKPGASVELSCKASGYTFTSYWMNWVKQRPGRGLEWIGRIAPNSGGTQYSGKFKTKATLTVDKSSSTAYMQLSSLTSEDSAVYYCARGDYFGHFDYWGQGTTLTVS VL: SLSASLGGKVTITCKASQDINNYIAWYQHKPGKGPRLLIHYTSILQPGIPSRFSGSGSGRDYSFSISNLEPEDIATYYCLQCDNLLTFGAGTKLELK",effect on tumor volume,A similar inhibition was not observed
